# Data published in patent CN115703833A (BOAOXIN BIOTECHNOLOGY NANJING CO LTD, dated 2023).
# B1: 本发明的单克隆抗体1D5 (小鼠抗CD47单克隆抗体) (antibody, V domains shown)
# VH: EVQLQQSGAELVRSGASVKLSCTASGFNIKDYYMSWVRQRPEQGLEWIGWIDPKNGDTAYDPKFQGKATMTADTSSNTAYLQFSSLTSEDTADYYCNAGGRGGFAYWGQGTLVTVSA
# VL: DVLMTQTPLSLPVSLGDQASISCRSNQSIVHSNGYTYLEWYLQKPGQSPKLLIYKVSNRFSGVPDRFSGSGSGTDFTLRISRVEAEDLGVYYCFQGSHVPRTFGGGTKLEIK
# notes: Tested as a purified mouse monoclonal antibody from a hybridoma
# Key:
# [1] = molecular target: T1, 人CD47 (表面过表达人CD47的293F细胞) (human, UniProt Q08722 19-323); assay: flow cytometry on 293F cells overexpressing human CD47
# T1 construct: whole, on cells; also called 表面过表达人CD47的稳定细胞系293F
# T1 sequence (Q08722 19-323): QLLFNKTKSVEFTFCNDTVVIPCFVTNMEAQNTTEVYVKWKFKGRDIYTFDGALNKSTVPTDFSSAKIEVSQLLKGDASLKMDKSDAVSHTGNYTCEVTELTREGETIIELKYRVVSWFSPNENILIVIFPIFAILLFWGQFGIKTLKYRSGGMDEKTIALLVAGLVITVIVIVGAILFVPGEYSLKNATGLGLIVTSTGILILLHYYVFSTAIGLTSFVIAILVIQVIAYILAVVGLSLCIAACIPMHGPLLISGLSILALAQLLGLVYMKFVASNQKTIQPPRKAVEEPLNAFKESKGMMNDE
# [2] = molecular target: T2, 重组人CD47-his蛋白 (ACRO biosystems, cat#CD7-H5227, MW 15.6 kDa) (human, UniProt Q08722 19-139, biotin-labelled in the ELISAs (position not given); unlabelled in Biacore); assay: Biacore T200 SPR; antibody captured by goat anti-mouse IgG on a CM5 chip, CD47-his as analyte
# T2 construct: also called 人CD47蛋白; 人CD47-生物素; not shown: his tag
# T2 sequence (Q08722 19-139 limits assumed): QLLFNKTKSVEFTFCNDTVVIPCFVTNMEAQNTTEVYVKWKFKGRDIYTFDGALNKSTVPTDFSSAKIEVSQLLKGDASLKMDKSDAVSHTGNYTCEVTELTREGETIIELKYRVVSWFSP
binder,measurement,setting,value
B1,binding result,[1],binds
same,binding result,[2],binds
